test system: Escherichia coli TOP10; assay: shrunken log2 fold change of peptide-encoding DNA abundance (4.5 h post-induction vs induction); higher = less antimicrobial activity (less host growth inhibition); conditions: time post-induction: 4.5 h; library: site-saturation at positions 5, 18, 19, 20
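Also: peptides expressed intracellularly from a pBAD plasmid library in pooled LB shake-flask culture, induced with 0.3% L-arabinose, DNA abundance read by NGS, three biological replicates, DESeq2 with apeglm shrinkage.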

Sequence	shrunken log2 fold change
RRIRIRPPRLPRPRPRPLTYPRP	-0.495
RRIRMRPPRLPRPRPRPYGWPRP	0.0956
RRIRRRPPRLPRPRPRPFPVPRP	0.271
RRIRCRPPRLPRPRPRPHWQPRP	-0.365
RRIRMRPPRLPRPRPRPEVFPRP	1.35
RRIRERPPRLPRPRPRPVWVPRP	0.0145
RRIRPRPPRLPRPRPRPLDMPRP	-0.142
RRIRPRPPRLPRPRPRPDNSPRP	-0.228
RRIRWRPPRLPRPRPRPQMSPRP	-0.149
RRIRHRPPRLPRPRPRPFYIPRP	-1.15
RRIRPRPPRLPRPRPRPFQVPRP	-0.0122
RRIRVRPPRLPRPRPRPKIFPRP	-0.00445
RRIRWRPPRLPRPRPRPTRVPRP	0.825
RRIRMRPPRLPRPRPRPSSAPRP	0.514
RRIRNRPPRLPRPRPRPCYEPRP	-0.0244
RRIRERPPRLPRPRPRPYSYPRP	-0.0155
RRIRMRPPRLPRPRPRPHLYPRP	-0.0224
RRIRPRPPRLPRPRPRPDWSPRP	-0.195
RRIRSRPPRLPRPRPRPSEGPRP	-0.559
RRIRWRPPRLPRPRPRPLYDPRP	-0.0701
RRIRVRPPRLPRPRPRPNQGPRP	-0.129
RRIRWRPPRLPRPRPRPPGMPRP	0.759
RRIRVRPPRLPRPRPRPYACPRP	0.0114
RRIRYRPPRLPRPRPRPWKKPRP	0.00843
RRIRRRPPRLPRPRPRPYRLPRP	-0.0421

Sequence	shrunken log2 fold change
RRIRGRPPRLPRPRPRPWGTPRP	0.0721
RRIRTRPPRLPRPRPRPSISPRP	-0.362
RRIRHRPPRLPRPRPRPYETPRP	-0.151
RRIRKRPPRLPRPRPRPPCHPRP	0.176
RRIRERPPRLPRPRPRPECNPRP	0.0631
RRIRSRPPRLPRPRPRPYMHPRP	-0.395
RRIRWRPPRLPRPRPRPTNPPRP	-0.0172
RRIRARPPRLPRPRPRPDPDPRP	1.3
RRIRIRPPRLPRPRPRPECKPRP	-0.259
RRIRKRPPRLPRPRPRPWPNPRP	0.0221
RRIRSRPPRLPRPRPRPAYCPRP	0.149
RRIRIRPPRLPRPRPRPATFPRP	-0.658
RRIRLRPPRLPRPRPRPFNIPRP	-0.0972
RRIRMRPPRLPRPRPRPAKSPRP	0.261
RRIRMRPPRLPRPRPRPARIPRP	0.56
RRIRYRPPRLPRPRPRPKSDPRP	-0.299
RRIRKRPPRLPRPRPRPTRFPRP	0.436
RRIRARPPRLPRPRPRPNPKPRP	0.372
RRIRRRPPRLPRPRPRPWPLPRP	0.468
RRIRPRPPRLPRPRPRPGNNPRP	-0.103
RRIRQRPPRLPRPRPRPVSHPRP	-0.0425
RRIRARPPRLPRPRPRPMQFPRP	0.091
RRIRSRPPRLPRPRPRPPDSPRP	0.322
RRIRDRPPRLPRPRPRPTGPPRP	0.334
RRIRWRPPRLPRPRPRPNYAPRP	-0.0925

Sequence	shrunken log2 fold change
RRIRERPPRLPRPRPRPETTPRP	0.165
RRIRMRPPRLPRPRPRPFTHPRP	-0.107
RRIRIRPPRLPRPRPRPDRVPRP	-0.0924
RRIRVRPPRLPRPRPRPRTYPRP	-0.309
RRIRTRPPRLPRPRPRPYWMPRP	-0.707
RRIRDRPPRLPRPRPRPTNYPRP	-0.48
RRIRWRPPRLPRPRPRPCVNPRP	0.0912
RRIRLRPPRLPRPRPRPVQSPRP	-0.031
RRIRPRPPRLPRPRPRPTAVPRP	0.362
RRIRFRPPRLPRPRPRPRGVPRP	0.0819
RRIRHRPPRLPRPRPRPSKNPRP	-0.163
RRIRFRPPRLPRPRPRPKSAPRP	-0.00592
RRIRMRPPRLPRPRPRPNRPPRP	-0.0884
RRIRSRPPRLPRPRPRPDPGPRP	0.246
RRIRDRPPRLPRPRPRPDPHPRP	0.0248
RRIRTRPPRLPRPRPRPFVVPRP	-0.266
RRIRFRPPRLPRPRPRPAECPRP	-0.16
RRIRCRPPRLPRPRPRPRSMPRP	-0.0145
RRIRVRPPRLPRPRPRPQKTPRP	0.0603
RRIRHRPPRLPRPRPRPLQWPRP	-0.127
RRIRHRPPRLPRPRPRPMSFPRP	-0.089
RRIRMRPPRLPRPRPRPDCDPRP	0.0709
RRIRNRPPRLPRPRPRPNWTPRP	-0.0743
RRIRDRPPRLPRPRPRPYMHPRP	-0.275
RRIRGRPPRLPRPRPRPFDMPRP	0.255

Sequence	shrunken log2 fold change
RRIRGRPPRLPRPRPRPQSLPRP	0.251
RRIRPRPPRLPRPRPRPNLTPRP	0.0262
RRIRSRPPRLPRPRPRPGILPRP	-0.0441
RRIRVRPPRLPRPRPRPMMFPRP	-0.0953
RRIRRRPPRLPRPRPRPYQNPRP	-0.74
RRIRGRPPRLPRPRPRPMHPPRP	-0.104
RRIRCRPPRLPRPRPRPAYAPRP	0.00565
RRIRHRPPRLPRPRPRPDVRPRP	-0.00783
RRIRKRPPRLPRPRPRPESCPRP	0.183
RRIRKRPPRLPRPRPRPWNFPRP	-0.162
RRIRQRPPRLPRPRPRPGLWPRP	0.452
RRIRGRPPRLPRPRPRPRVHPRP	0.666
RRIRYRPPRLPRPRPRPGLLPRP	0.0178
RRIRHRPPRLPRPRPRPSCVPRP	-0.308
RRIRNRPPRLPRPRPRPFNSPRP	-0.0382
RRIRFRPPRLPRPRPRPNMNPRP	-0.953
RRIRHRPPRLPRPRPRPRIQPRP	-0.267
RRIRWRPPRLPRPRPRPEDIPRP	-0.0433
RRIRHRPPRLPRPRPRPCPEPRP	0.037
RRIRERPPRLPRPRPRPIRPPRP	-0.0241
RRIRERPPRLPRPRPRPCLWPRP	-0.0179
RRIRYRPPRLPRPRPRPKIVPRP	-0.188
RRIRKRPPRLPRPRPRPNNWPRP	0.42
RRIRFRPPRLPRPRPRPSDVPRP	0.0142
RRIRTRPPRLPRPRPRPNYCPRP	-0.0491

Sequence	shrunken log2 fold change
RRIRLRPPRLPRPRPRPVANPRP	-0.0731
RRIRVRPPRLPRPRPRPEFFPRP	0.183
RRIRHRPPRLPRPRPRPAGYPRP	-0.0739
RRIRGRPPRLPRPRPRPTQVPRP	0.353
RRIRMRPPRLPRPRPRPWHNPRP	-0.0135
RRIRIRPPRLPRPRPRPRQRPRP	0.211
RRIRMRPPRLPRPRPRPDEEPRP	2.97
RRIRERPPRLPRPRPRPPYEPRP	-0.296
RRIRQRPPRLPRPRPRPWRVPRP	-0.049
RRIRQRPPRLPRPRPRPFHPPRP	-0.197
RRIRERPPRLPRPRPRPSAIPRP	-0.115
RRIRRRPPRLPRPRPRPFYMPRP	-0.198
RRIRWRPPRLPRPRPRPWCSPRP	-0.329
RRIRLRPPRLPRPRPRPWIMPRP	-0.224
RRIRSRPPRLPRPRPRPKRSPRP	0.205
RRIRARPPRLPRPRPRPYQHPRP	-0.272
RRIRPRPPRLPRPRPRPKSRPRP	0.154
RRIRWRPPRLPRPRPRPFHNPRP	-0.392
RRIRSRPPRLPRPRPRPMNRPRP	-0.378
RRIRIRPPRLPRPRPRPMANPRP	-0.104
RRIRWRPPRLPRPRPRPLIRPRP	-0.117
RRIRLRPPRLPRPRPRPCLKPRP	-0.682
RRIRFRPPRLPRPRPRPIPRPRP	0.365
RRIRARPPRLPRPRPRPLDYPRP	-0.25
RRIRQRPPRLPRPRPRPGDWPRP	0.866

Sequence	shrunken log2 fold change
RRIRRRPPRLPRPRPRPKIDPRP	-0.000206
RRIRARPPRLPRPRPRPDTSPRP	0.435
RRIRMRPPRLPRPRPRPEFDPRP	2.44
RRIRTRPPRLPRPRPRPLSQPRP	-0.0906
RRIRSRPPRLPRPRPRPSWTPRP	-0.299
RRIRVRPPRLPRPRPRPSSYPRP	-0.139
RRIRCRPPRLPRPRPRPFYIPRP	-0.58
RRIRDRPPRLPRPRPRPGYSPRP	-0.591
RRIRERPPRLPRPRPRPDSIPRP	-0.042
RRIRSRPPRLPRPRPRPLCFPRP	-0.0528
RRIRDRPPRLPRPRPRPVEHPRP	0.115
RRIRDRPPRLPRPRPRPFHPPRP	-0.106
RRIRKRPPRLPRPRPRPESQPRP	0.967
RRIRIRPPRLPRPRPRPPMAPRP	-0.256
RRIRSRPPRLPRPRPRPKRLPRP	0.297
RRIRMRPPRLPRPRPRPHQGPRP	0.013
RRIRRRPPRLPRPRPRPFSEPRP	-0.0505
RRIRSRPPRLPRPRPRPQIAPRP	-0.102
RRIRIRPPRLPRPRPRPNHMPRP	-0.361
RRIRHRPPRLPRPRPRPVVWPRP	0.524
RRIRLRPPRLPRPRPRPCFGPRP	-0.0493
RRIRIRPPRLPRPRPRPKYSPRP	-0.216
RRIRFRPPRLPRPRPRPLMPPRP	-0.00679
RRIRNRPPRLPRPRPRPAQVPRP	0.157
RRIRKRPPRLPRPRPRPYLKPRP	-0.525

Reference: the supplement of paper PMC9112550, “Optimization of the antimicrobial peptide Bac7 by deep mutational scanning” (BMC Biology, 2022)
